Measured values published in patent US20240083986A1 (published 2024).

T1: Alder (Aln g 1, MyBiosource, Cat #MBS1041484) (Alder, UniProt P38948 2-160, limits assumed)
T1 construct: Bought reagent
T1 sequence (looked up): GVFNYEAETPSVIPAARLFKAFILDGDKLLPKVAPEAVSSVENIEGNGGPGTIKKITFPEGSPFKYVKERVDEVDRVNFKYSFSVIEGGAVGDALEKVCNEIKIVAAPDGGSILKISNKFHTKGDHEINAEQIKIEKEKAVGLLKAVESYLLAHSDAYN

T2: Apple (Mal d 1, MyBiosource, Cat #MBS1224919) (Apple, UniProt P43211 2-159, limits assumed)
T2 construct: Bought reagent
T2 sequence (looked up): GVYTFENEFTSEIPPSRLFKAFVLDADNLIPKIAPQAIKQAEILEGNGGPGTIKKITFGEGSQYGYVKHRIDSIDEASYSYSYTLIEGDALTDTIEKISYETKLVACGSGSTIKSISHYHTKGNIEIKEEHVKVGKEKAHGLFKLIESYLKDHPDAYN

T3: Celery (Api g 1, MyBiosource, Cat #MBS1171376) (Celery, UniProt P49372 1-154, limits assumed)
T3 construct: Bought reagent
T3 sequence (looked up): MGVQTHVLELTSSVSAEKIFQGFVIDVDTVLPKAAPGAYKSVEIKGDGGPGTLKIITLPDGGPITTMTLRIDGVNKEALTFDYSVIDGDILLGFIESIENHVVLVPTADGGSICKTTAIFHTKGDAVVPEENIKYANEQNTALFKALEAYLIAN

T4: European Hornbeam (Car b 1 isoform 1A & 1B, MyBiosource, Cat #MBS1200018) (European Hornbeam, UniProt P38949 2-160)
T4 construct: Bought reagent
T4 sequence (looked up): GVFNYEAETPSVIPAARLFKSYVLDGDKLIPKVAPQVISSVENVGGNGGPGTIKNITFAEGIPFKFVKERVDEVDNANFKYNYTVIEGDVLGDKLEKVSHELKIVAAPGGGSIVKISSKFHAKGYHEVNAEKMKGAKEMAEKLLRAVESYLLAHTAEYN

T5: natural Bet v 1 (Indoor, Cat #NA-BV1-1) (Betula verrucosa (European white birch, …, UniProt P15494 2-160))
T5 construct: Bought natural protein purified from birch pollen; also called nBet v 1
T5 sequence: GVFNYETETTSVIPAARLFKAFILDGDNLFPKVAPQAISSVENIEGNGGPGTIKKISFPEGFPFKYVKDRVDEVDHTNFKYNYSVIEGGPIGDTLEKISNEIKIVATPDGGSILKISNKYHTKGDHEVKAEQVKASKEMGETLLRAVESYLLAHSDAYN

B1: H4H16946P (antibody, human IgG4, V domains shown)
VH: EVQLVESGGGLVQPGGSLRLSCVASGFTFSNYDMNWVRQAPGEGLEWISYISYSDHNIYYIDSVKGRFTISRDNAKNSLYLQMNSLRAEDTAIYYCAREALASSSFDYWGQGTLVTVSS
VL: EIVMTQSPATLSVSPGERVTLSCRASQSVSGNLAWYQQKPGQAPRLLIYSASTGATGVPARFSGSGSGTEFTLTISSLQSEDFALYYCQQYNKWPRTIGQGTKVEIK
B2: H4H16979P (antibody, human IgG4, V domains shown)
VH: QVQLVQSGAEVKKPGASVKVSCKASGYTFIAYYLHWVRQAPGQGLEWMGLLNPYTGGSYYTQKFQGRVTMTRDTSIDTAYMELNSLRSDDTAIYYCARDKRSYYIPYAFEIWGQGTMVTVSS
VL: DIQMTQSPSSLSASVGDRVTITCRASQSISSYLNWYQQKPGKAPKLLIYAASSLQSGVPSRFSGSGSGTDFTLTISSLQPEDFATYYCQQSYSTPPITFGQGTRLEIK
B3: H4H17033P (antibody, human IgG4, V domains shown)
VH: QVQLVQSGAEVKKPGASVKVSCKASGYTFAAHYMHWVRQAPGQGLEWMGWINTYTGGTNYGQKFQGRVTMTRDTSITTAYMELSRLRSDDTAVYYCARDRRNWNFVFEYWGQGTLVTVSS
VL: DIQMTQSPSSLSASVGDRVTISCRASQNIKNYLNWYQQKPGKAPKLLIYEASNLQSGAPSRFSGSGSGTDFTLTISSLEPEDFATYYCQQSFSIPWTFGQGTKVEIK
B4: H4H16992P (antibody, human IgG4 S228P, kappa, V domains shown)
VH: QVQLQESGPGLVKPSETLSLTCSVSGGSITNYFWTWIRQSPGKGLEWIGYIYYSGGTNYNPSLKSRVTISIDTSKNQFSLNMNSVTAADTAVYYCAGSYYYGVDVWGQGTTVTVSS
VL: EIVLTQSPATLSLSPGERATLSCRASQSIKSFLAWYRQKPGQAPRLLIYDASNRPTGIPARFSGSGSGTDFTLTINSLESEDFAVYFCQQRNNWPFTFGPGTKVDIKR
notes: human IgG4; also called REGN5713; MAB1
B5: H4H17038P2 (antibody, human IgG4 S228P, kappa, V domains shown)
VH: EVQLVESGGDLVQPGGSLRLSCAASGFTFSSYEMNWVRQAPGKGLEWVSFISDSSSNIYYADSVKGRFTISRDNAKKSLYLQMTSLRAEDTAVYYCAREAIGSTSFDNWGQGTLVTVSS
VL: EIVMTQSPATLSVSPGERATLSCRASQSVSSSLAWYQQKPGQAPRRLIYSASTRATGIPARFSGSGSGTEFTLTISSLQSEDFAIYYCHQYNNWPLTFGGGTKVEIKR
notes: human IgG4; also called REGN5714; MAB3
B6: H4H16987P (antibody, human IgG4 S228P, kappa, V domains shown)
VH: EVQLVESGGGLVQPGGSLRLSCAASGFTVSSNSMSWVRQAPGEGLEWVSVIFSGGITYYSDSVKGRFTISRHNSKNTLYLQMNSLRTEDTAVYYCARHSNWNFDAFDIWGQGTMVTVSS
VL: DIQMTQSPSSLSASVGDRVTITCRASQSFDTYLNWYQQKPGKAPNLLIYATSSLQSGVPSRFSGSGSGTDFTLTISSLQPEDFGTYYCQQSYSIPYTFGQGTKLEIKR
notes: human IgG4; also called MAB4
B7: H4H17027P (antibody, human IgG4, V domains shown)
VH: EVQLVESGGGLVQPGGSLRLSCAASGFTFRNYAMHWVRQAPGEGLEWVAAIYRNSDSIDYADSVKGRFTISRDNAKNSLYLQMNSLKTEDTALYYCAKDEGFLEYFDSWGQGTLVTVSS
VL: EIVLTQSPGTLSLSPGERASLSCRASQSVSSSFLAWYQQKPGQAPRLLIYGVSSRFIGIPDRFSGGGSGTDFTLTITRLEPEDFAVYYCQQYGRSPWTFGQGTKVEIK
B8: H4H17028P (antibody, human IgG4, V domains shown)
VH: QVQLVESGGGVVQPGRSLRLSCAASGFTFSRYAIHWVRQAPGKGLEWVAVISYDGDDKYYGDSVKGRFTISRDNSKTMVYLHMNSLRTEDTAVYYCAKDGYSLYGKDYFDYWGQGTLVTVSS
VL: EIVLTQSPGTLPLSPGERATLSCRASQSITNSYLAWYQQKPDQAPRLLIYGASSRATGIPDRFSGSESGTDFTLTISRLEPEDFAVYYCQQYVRSPWTFGQGTKVEIK
B9: H4H17031P (antibody, human IgG4, V domains shown)
VH: QVQLQQWGAGLLKPSETLSLTCVVYGESFGNYHWNWIRQSPGKRLEWIGEINQNGHTNYNPSLKSRVTISVDTSKIQFSLRLNSVTAADTAVYFCARGHNYVNSYFGLDVWGQGTTVTVSS
VL: EIVMTQSPATLSVSPGERATLSCRTSQSVSISLAWYQRKPGQAPRLLIFGSSTRATGVPARFSGSGSGTEFTLTISSLQSEDFAVYYCQQYNNWPYTFGQGTKLEIK
B10: H4H16971P (antibody, human IgG4, V domains shown)
VH: QVQLVESGGGVVQPGRSLRLSCAASGFTFSSYGLHWVRQAPGKGLEWVAVISDDGSYKFYADSMKGRFTISRDNSKNTLYLQMNSLRAEDTAVYYCAKDRGRSGWYYFDYWGQGTLVTVSS
VL: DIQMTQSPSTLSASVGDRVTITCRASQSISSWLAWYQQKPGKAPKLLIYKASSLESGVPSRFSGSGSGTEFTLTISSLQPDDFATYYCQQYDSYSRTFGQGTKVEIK

What follows are binders tested against T1, Alder (Aln g 1, MyBiosource, Cat …) (assay: SPR Biacore, 25C;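 note: binding of related allergens to purified monoclonal anti-Bet v 1 antibodies by surface plasmon resonance in HEPES-buffered saline pH 7.4, kinetics fitted to a 1:1 model with mass transport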).
Experimental: (§1) Equilibrium dissociation constants (KD) for different related allergens binding to purified anti-Bet v 1 monoclonal antibodies were determined using a real-time surface plasmon resonance biosensor (SPR-Biacore) on a Biacore 4000 instrument. All binding studies were performed in 10 mM HEPES, 150 mM NaCl, 3 mM EDTA, and 0.05% v/v surfactant Tween-20, pH 7.4 (HBS-ET) running buffer at 25° C. […] Binding studies were performed on the following related allergens: Alder (Aln g 1, MyBiosource, Cat #MBS1041484), Apple (Mal d 1, MyBiosource, Cat #MBS1224919), Carrot (Dau c 1.2, MyBiosource, Cat #MBS1212920), Celery (Api g 1, MyBiosource, Cat #MBS1171376), Celery (Api g 2, MyBiosource, Cat #MBS1047880), European Hornbeam (Car b 1 isoform 1A & 1B, MyBiosource, Cat #MBS1200018), European Hornbeam (Car b 1 isoform 2, MyBiosource, Cat #MBS1043940), Hazel (Cor A 1, MyBiosource, Cat #MBS5304600), and White Oak (Que a 1, MyBiosource, Cat #MBS1258822). […] Association (kₐ) and dissociation (kd) rate constants were determined by fitting the real-time binding sensorgrams to a 1:1 binding model with mass transport limitation using Scrubber 2.0c curve-fitting software. Binding dissociation equilibrium constants (KD) and dissociative half-lives (t½) were calculated from the kinetic rate constants as:
B1: no binding (tested: 100 nM). B2: no binding (tested: 100 nM). B3: no binding (tested: 100 nM). B4: no binding (tested: 100 nM). B5: no binding (tested: 100 nM).

The binders below were run against T2, Apple (Mal d 1, MyBiosource, Cat …) (assay: SPR Biacore, 25C;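 note: binding of related allergens to purified monoclonal anti-Bet v 1 antibodies by surface plasmon resonance in HEPES-buffered saline pH 7.4, kinetics fitted to a 1:1 model with mass transport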).
Experimental: as §1
B1: no binding (tested: 100 nM). B2: no binding (tested: 100 nM). B6: no binding (tested: 100 nM). B7: no binding (tested: 100 nM). B8: no binding (tested: 100 nM). B9: no binding (tested: 100 nM). B3: no binding (tested: 100 nM). B4: no binding (tested: 100 nM). B5: no binding (tested: 100 nM).

These binders were tested against T3, Celery (Api g 1, MyBiosource, Cat …) (assay: SPR Biacore, 25C;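 note: binding of related allergens to purified monoclonal anti-Bet v 1 antibodies by surface plasmon resonance in HEPES-buffered saline pH 7.4, kinetics fitted to a 1:1 model with mass transport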).
Experimental: as §1
B1: no binding (tested: 100 nM). B10: no binding (tested: 100 nM). B2: no binding (tested: 100 nM). B6: no binding (tested: 100 nM). B7: no binding (tested: 100 nM). B8: no binding (tested: 100 nM). B9: no binding (tested: 100 nM). B4: no binding (tested: 100 nM). B5: no binding (tested: 100 nM).

The binders below were run against T4, European Hornbeam (Car b 1 isoform 1A & …) (assay: SPR Biacore, 25C;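 note: binding of related allergens to purified monoclonal anti-Bet v 1 antibodies by surface plasmon resonance in HEPES-buffered saline pH 7.4, kinetics fitted to a 1:1 model with mass transport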).
Experimental: as §1
B10: no binding (tested: 100 nM). B2: no binding (tested: 100 nM). B6: no binding (tested: 100 nM). B3: no binding (tested: 100 nM).

Each binder was assayed against T5, natural Bet v 1 (Indoor, Cat #NA-BV1-1) (assay: SPR Biacore, mAb captured on anti-hFc, 25C;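 note: rate constants from sensorgrams fitted to a 1:1 model with mass transport limitation, KD and t½ derived from kinetic constants, run in HBS-ET buffer at pH 7.4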).
Experimental: Equilibrium dissociation constants (KD) for natural Bet v 1 binding to purified anti-Bet v 1 monoclonal antibodies were determined using a real-time surface plasmon resonance biosensor (SPR-Biacore) on a Biacore 4000 instrument. All binding studies were performed in 10 mM HEPES, 150 mM NaCl, 3 mM EDTA, and 0.05% v/v surfactant Tween-20, pH 7.4 (HBS-ET) running buffer at 25° C. and 37° C. […] Association (kₐ) and dissociation (kd) rate constants were determined by fitting the real-time binding sensorgrams to a 1:1 binding model with mass transport limitation using Scrubber 2.0c curve-fitting software. Binding dissociation equilibrium constants (KD) and dissociative half-lives (t½) were calculated from the kinetic rate constants as:
B1 was tested, and the “100 nM natural Bet v 1 Bound (RU)” value was 74 RU, the Kd was 0.982 nM and the koff was 0.000201 s⁻¹. It also gave a kon of 205000 M⁻¹ s⁻¹ and a t½ of 58 min. B10 was tested, and the “100 nM natural Bet v 1 Bound (RU)” value was 57 RU, the Kd was 3.26 nM and the koff was 0.000781 s⁻¹. The kon was 240000 M⁻¹ s⁻¹ and the t½ was 15 min. In the case of B2, the “100 nM natural Bet v 1 Bound (RU)” value is reported as 41 RU, the Kd is reported as 1.21 nM and the koff is reported as 0.000278 s⁻¹. For the same binder, the kon was 230000 M⁻¹ s⁻¹ and the t½ was 42 min. With B6 the “100 nM natural Bet v 1 Bound (RU)” value was 61 RU, the Kd was 2.77 nM and the koff was 0.00114 s⁻¹. The kon was 410000 M⁻¹ s⁻¹ and the t½ was 10 min. For B7, the “100 nM natural Bet v 1 Bound (RU)” value was 48 RU, the Kd was 4.32 nM and the koff was 0.00027 s⁻¹. It also gave a kon of 62400 M⁻¹ s⁻¹ and a t½ of 43 min. B8 was tested, and the “100 nM natural Bet v 1 Bound (RU)” value was 63 RU, the Kd was 3.79 nM and the koff was 0.00107 s⁻¹. The kon was 281000 M⁻¹ s⁻¹ and the t½ was 11 min. With B9 the “100 nM natural Bet v 1 Bound (RU)” value was 54 RU, the Kd was 13.5 nM and the koff was 0.00168 s⁻¹. It also gave a kon of 124000 M⁻¹ s⁻¹ and a t½ of 6.8 min. B3 was tested, and the “100 nM natural Bet v 1 Bound (RU)” value was 61 RU, the Kd was 1.19 nM and the koff was 0.000469 s⁻¹. For the same binder, the kon was 394000 M⁻¹ s⁻¹ and the t½ was 25 min.

The binders below were run against T5, natural Bet v 1 (Indoor, Cat #NA-BV1-1) (assay: SPR Biacore, mAb captured on anti-hFc, 37C;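 note: purified anti-Bet v 1 monoclonal antibodies, HBS-ET running buffer pH 7.4, rate constants from 1:1 model fit with mass transport limitation, KD and t½ calculated from kinetic constants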).
In the case of B1, the “100 nM natural Bet v 1 Bound (RU)” value is reported as 93 RU, the Kd is reported as 2.08 nM and the koff is reported as 0.000601 s⁻¹. The kon was 289000 M⁻¹ s⁻¹ and the t½ was 19 min. For B10, the “100 nM natural Bet v 1 Bound (RU)” value was 66 RU, the Kd was 6.93 nM and the koff was 0.00244 s⁻¹. For the same binder, the kon was 352000 M⁻¹ s⁻¹ and the t½ was 4.7 min. With B2 the “100 nM natural Bet v 1 Bound (RU)” value was 52 RU, the Kd was 1.8 nM and the koff was 0.000616 s⁻¹. It also gave a kon of 342000 M⁻¹ s⁻¹ and a t½ of 19 min. B6 was tested, and the “100 nM natural Bet v 1 Bound (RU)” value was 74 RU, the Kd was 9.16 nM and the koff was 0.00477 s⁻¹. The kon was 520000 M⁻¹ s⁻¹ and the t½ was 2.4 min. With B7 the “100 nM natural Bet v 1 Bound (RU)” value was 67 RU, the Kd was 9.48 nM and the koff was 0.00093 s⁻¹. For the same binder, the kon was 98100 M⁻¹ s⁻¹ and the t½ was 12 min. In the case of B8, the “100 nM natural Bet v 1 Bound (RU)” value is reported as 71 RU, the Kd is reported as 7.77 nM and the koff is reported as 0.0029 s⁻¹. It also gave a kon of 373000 M⁻¹ s⁻¹ and a t½ of 3.9 min. For B9, the “100 nM natural Bet v 1 Bound (RU)” value was 63 RU, the Kd was 27.9 nM and the koff was 0.00544 s⁻¹. The kon was 485000 M⁻¹ s⁻¹ and the t½ was 2.1 min. B3 was tested, and the “100 nM natural Bet v 1 Bound (RU)” value was 74 RU, the Kd was 1.9 nM and the koff was 0.00119 s⁻¹. The kon was 627000 M⁻¹ s⁻¹ and the t½ was 10 min.
